Data from patent US20190309079A1 (Regeneron, published 2019).

Tests used:
[1] = molecular target: T1, LEPR-A409E (signaling-defective mutant) on HEK293 reporter cells (human, UniProt P48357 22-1165); assay: cell-based or functional assay
T1 sequence: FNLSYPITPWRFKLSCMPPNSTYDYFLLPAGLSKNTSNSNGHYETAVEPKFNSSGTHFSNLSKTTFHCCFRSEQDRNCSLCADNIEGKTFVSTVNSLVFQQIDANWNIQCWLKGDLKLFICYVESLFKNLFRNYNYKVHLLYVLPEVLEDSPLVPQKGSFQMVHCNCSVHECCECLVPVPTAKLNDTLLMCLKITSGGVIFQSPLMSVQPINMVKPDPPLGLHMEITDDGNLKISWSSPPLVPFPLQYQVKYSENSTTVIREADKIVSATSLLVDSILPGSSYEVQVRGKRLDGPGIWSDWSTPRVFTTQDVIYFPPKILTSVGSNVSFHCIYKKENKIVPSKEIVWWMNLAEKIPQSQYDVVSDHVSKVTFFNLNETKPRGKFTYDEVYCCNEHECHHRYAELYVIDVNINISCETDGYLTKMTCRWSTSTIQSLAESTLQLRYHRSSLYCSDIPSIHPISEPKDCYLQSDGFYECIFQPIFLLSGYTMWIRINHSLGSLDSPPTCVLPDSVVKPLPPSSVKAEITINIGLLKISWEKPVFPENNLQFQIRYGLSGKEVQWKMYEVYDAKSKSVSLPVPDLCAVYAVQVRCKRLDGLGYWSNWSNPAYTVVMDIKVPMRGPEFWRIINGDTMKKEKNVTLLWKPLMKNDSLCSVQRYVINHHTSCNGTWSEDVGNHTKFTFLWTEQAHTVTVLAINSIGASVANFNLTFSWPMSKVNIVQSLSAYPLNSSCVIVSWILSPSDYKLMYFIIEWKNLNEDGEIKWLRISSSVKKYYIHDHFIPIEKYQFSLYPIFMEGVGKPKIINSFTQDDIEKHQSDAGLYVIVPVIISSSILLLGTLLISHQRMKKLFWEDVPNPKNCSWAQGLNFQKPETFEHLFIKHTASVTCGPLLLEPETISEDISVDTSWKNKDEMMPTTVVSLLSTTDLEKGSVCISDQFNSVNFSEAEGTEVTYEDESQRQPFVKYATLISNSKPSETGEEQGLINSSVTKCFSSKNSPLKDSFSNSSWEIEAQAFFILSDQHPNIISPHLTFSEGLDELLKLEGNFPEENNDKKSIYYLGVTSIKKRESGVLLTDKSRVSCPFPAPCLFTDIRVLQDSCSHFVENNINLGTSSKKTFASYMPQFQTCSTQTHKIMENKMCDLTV

[2] = molecular target: T2, wild-type LEPR on HEK293 reporter cells (UniProt P48357 22-1165, limits assumed); assay: cell-based or functional assay
T2 sequence (looked up): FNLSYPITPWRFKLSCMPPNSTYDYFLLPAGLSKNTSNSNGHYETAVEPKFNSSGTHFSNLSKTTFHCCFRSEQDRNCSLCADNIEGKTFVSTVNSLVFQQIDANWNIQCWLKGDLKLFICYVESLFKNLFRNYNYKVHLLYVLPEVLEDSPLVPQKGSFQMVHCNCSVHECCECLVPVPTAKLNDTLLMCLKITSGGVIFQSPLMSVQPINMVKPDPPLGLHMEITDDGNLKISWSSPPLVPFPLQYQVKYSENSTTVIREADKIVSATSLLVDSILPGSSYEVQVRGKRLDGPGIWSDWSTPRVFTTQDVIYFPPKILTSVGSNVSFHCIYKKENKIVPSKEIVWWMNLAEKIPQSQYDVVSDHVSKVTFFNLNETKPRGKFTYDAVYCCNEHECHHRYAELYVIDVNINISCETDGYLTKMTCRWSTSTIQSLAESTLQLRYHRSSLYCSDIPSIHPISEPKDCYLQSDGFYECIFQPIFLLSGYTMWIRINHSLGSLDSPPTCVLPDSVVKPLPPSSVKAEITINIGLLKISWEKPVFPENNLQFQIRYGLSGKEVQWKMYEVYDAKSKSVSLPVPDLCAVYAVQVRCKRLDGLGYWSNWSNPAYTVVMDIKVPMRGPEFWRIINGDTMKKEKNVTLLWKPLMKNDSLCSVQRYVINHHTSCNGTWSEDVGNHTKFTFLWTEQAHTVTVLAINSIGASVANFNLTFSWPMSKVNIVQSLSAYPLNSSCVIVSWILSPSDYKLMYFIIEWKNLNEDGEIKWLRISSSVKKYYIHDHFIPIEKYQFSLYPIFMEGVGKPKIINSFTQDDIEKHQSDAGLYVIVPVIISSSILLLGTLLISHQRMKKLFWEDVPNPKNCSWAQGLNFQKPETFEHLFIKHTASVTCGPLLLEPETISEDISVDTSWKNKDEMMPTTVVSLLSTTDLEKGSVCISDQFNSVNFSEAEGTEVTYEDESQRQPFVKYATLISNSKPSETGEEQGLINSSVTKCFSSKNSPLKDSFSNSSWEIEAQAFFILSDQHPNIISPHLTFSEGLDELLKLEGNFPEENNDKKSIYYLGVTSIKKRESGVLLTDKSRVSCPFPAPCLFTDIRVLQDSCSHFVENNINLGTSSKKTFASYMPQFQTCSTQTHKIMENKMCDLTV

- EC50 (read off the curve), pSTAT3 Y705/STAT3 densitometry [1]: ~2e-10 M
- EC50 (read off the curve), pSTAT3 Y705/STAT3 densitometry [2]: ~5e-10 M
B1: H4H16650P2 (antibody, V domains shown)
VH: QVQLVESGGGVVQPGKSLRLSCVASGFTFSSDAMYWVRQAPGKGLEWVAVIYYDGNYQYYEDSVKGRFTISRDNSQNTLDLQMNSLRVDDTAVYFCARLNWDYWYLDLWGRGTLVTVSS
VL: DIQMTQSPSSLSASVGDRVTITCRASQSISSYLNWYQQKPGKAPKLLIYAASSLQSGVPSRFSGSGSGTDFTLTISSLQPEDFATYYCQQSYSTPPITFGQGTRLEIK
